The results in this text go back to the DeepSol protein solubility set.

The nature of this series: soluble on expression in E. coli; label from the status in PepcDB or PDB records.
Consider “MGSDKIHHHHHHMQQPLAYRMRPRHLDEVVGQQHLVGPGKIIRRMVEAKMLSSMILYGPPGTGKTSIASAIAGSTNYAFRMLNAATDTKKDLQIVAEEAKMSGTVILLLDEIHRLDKTKQDFLLPHLENGRIIMIGATTENPYITINPAIRSRTQIFEVKPLTETDIQQAIQEALTDSTRGLGDYPVHLEEKALQHLTRATNGDLRSALNGLELAVKSTPKNEQGEIKITLPIIEECVQRKALTHVKDGDAHYDVISAFQKSIRGSDVDAALHYLGRLVEAGDLPIICRRLMVIAYEDIGLGNPAAAARTVTAVQAAEKLGFPEARIPLASVVIDLCLSPKSNSAVTAIDAALADIRQGSVGDVPDHLRDAHYAGAKELNRGIGYQYPHNFENGWVNQQYLPDKLKEARYYEPIDIGKYEQALHQQLKRIQEWKQKK”, for which the “soluble on expression in E. coli” value is “not soluble”.
On to “MGSDKIHHHHHHAIKNCQIHTFSLSHDSVSGLDTVKFTIDQLTGRIFNIDSLPFGTKIEKVVCKIGFANSSVIGGVEASPEAYPDSTYYLSSLSDSIDFSAPVKFVVHAYDQVTTKVYMAQVNIHQVVPDSMVWSMYANPMIGITVKDQKVVTYDYNGSENYFMYVKPAESGKPYQLYYAPVSAPKGWQSLSLTGLPSDGLLISQITEYNNALYVPATNGTLYRSEDGLTWSAVENAPSVKYVLGSVKQGTKQPSALATIVDQEGKLAFYAMNESMEWIAGDAVPSGFPVTGFSNLQYAAMYHEYLMTASGRTVDNQVVNTTWATMDGISWALMASGDANFTKREGAMITNYDDKFFLIGGIDASNKALKDMYQSIDYGISWSLIDSMVVLPTDYAARGFSSIIVDKENFVNIFGGKISTGSNDLNQLWRGRINRLIPKE”, for which the “soluble on expression in E. coli” value is reported as “not soluble”.
The value for “MDNNEKEKSKSELLVVTGLSGAGKSLVIQCLEDMGYFCVDNLPPVLLPKFVELMEQGNPSLRKVAIAIDLRGKELFNSLVAVVDKVKSESDVIIDVMFLEASTEKLISRYKETRRAHPLMEQGKRSLINAINDEREHLSQIRSIANFVIDTTKLSPKELKERIRRYYEDEEFETFTINVTSFGFKHGIQMDADLVFDVRFLPNPYYVVDLRPLTGLDKDVYNYVMKWKETEIFFEKLTDLLDFMIPGYKKEGKSQLVIAIGCTGGQHRSVALAERLGNYLNEVFEYNVYVHHRDAHIESGEKK” was “not soluble”; that for “MSLSSEQQAMIDYVLAGKDVIVDATVGSGKTTAIQRLCSIMGADHDVLYLTYSKLLKVDAQQRVRGAKVQNYHGIVYPHLLKAGIKCGISESIREFNKNFKHISRTFPSYDLLVIDEYQDINEDYAELLRNIKSVNPLMQIVMVGDLEQKVRSDTTLDPQEFAAQLCEDPVFAPFTQSFRIGEAMAAGLADAWNKPIVGANTAQQIEYRSFAEAVVLIQSTEPSKLLCLGSRNGQMSDALNVVERKSPAKFNKKTVFASIRDGDSQIAHPNDAAVFTTFDSSKGLERDTCVVFDYDEEFWDMRLGYPNVDPVVMRNVFLVAASRGKNKVVFVRSDSLQAAYEAGADWAAGLAVGVVDNNTEVAPEVDAHTPAEESKGDVGEVQSQIERMMGFIPVSVFKELPELAPSEYARPISVTEAFDFKYAENVEACFDLLDVKRLDNGKGAAIEVNRSDGLIDLSPTVGNFQEAVFFKDYNVHTALSAYPSQFAKNLKRLVKKNNSVWRNCLIVTAASTEQMRYVDQVRSSIPVAAEKALVSRLSTRLNADSRNQIPLILDGEAVQSKVVRTPMSFAGVADAVHKGVLYELKFVSELTHPMFLQLAMYLVMSGMKDGILWNTRTDEAWQVRVPDPKRFLNAVVLCVSKQDYRVGNFDLPSTGGEGHHHHHH” was “not soluble”; that for “METNRPSPDALLVNLQEEADSSVGKLKIYFGFAAGVGKTYAMLSDAKDQLAAGVDVVAGYIEPHAREETLRMLEGIPIIPPKAINHKNIALKEFDLDEALKRKPELILVDELAHTNASGVRNKKRFQDVEELLQAGIDVYTTVNVQHIESLNDIVEGITKVAVRETIPDYVFDEADRVKLIDIEPDELLKRLEQGKIYQPARAKTAMQNFFTRENLKLLREIAMRKAADRI” was “not soluble”.
Turning to “TEEDPSSGHGGVALESLSSFLAHSRRAGIYRLHLPDSVLSHFVRAALDYRERQVPFDFAFDSASDAELYCTELVAAALLRADSLLPIRPSISVAGRRVYSLDDLLLLPGTKCMALAN”, the “soluble on expression in E. coli” value is “not soluble”.
For “MNYILGTILESKITGVEKAQINRLKLFKQHGISSKCVYVKWNPYSYTYAKQHQIENDVFTMYDYFQKAINYKKTKQVNWIQYWEKSCRYTLKFVENSNDVRIYDEEQFVMYAHFLDKQYHQLNYVNYFDHKRRKVKRELYDGRGFLSCSRILGEGQRIVLENYYTPNGEIVIQKYFDDIKGKNTLTKVILNEDQHQQFFDTEDELVQYFLHQLCKNNDQIILDRPHELGNVIAGLNQSIPVIVVLHSTHLSGAGNGIKSFYKTVFNNLTRYKAIVVSTEKQCQDISQYIENKIPVINIPVGYVANLKYQFDINQKEKNHIISIARLVENKQIKHQIEVIKQLVTKHPNIQLNIYGHGNGLSEYRQLVEDYHLSEHVKFHGFKTHINEEIAKAELMLSTSKMEGFGLAILESLSVGTPVISYDVDYGPSELIQDGFNGYLVPQGDINQMVEKVDQLLNNTQKLQQFSINSIESAQQYNATTISTKWQNILN” the value was “not soluble”; for “MDDPNRIVSASRRPKALIRLLDSQQIEVVLHSRLSVEDVLRLVAEKVDLSFPDSQYFCLGFSDNLNNFHWLDGSVILYDLVASTSNPKGTLTLSHHVRFFVDTIYEVQCASTAKLFFFDIHNQLARHELLVTSEDYFELVAILVSVFVPDCQEHTTAEAISRIMPMSHPPYILLKTDQSEVERRVFEKFRYYRRLPVGTGMISFIKLAEKSESYGYRMYEALNENNDKCILSIGYKGIYIYRRSRHQNLITPYLAYPWRVIDNLYYRDKKFSIEIREPKNSLHSNSSIGTMPSAKIGDGSTSSLPMSSAKPMSTQTSEPQLPDVPEPNESLHNKTIDEFQKDQEKCDRLKARKAELEMRLRQKMQELKDVCVEEGDITGEMPVEINDVVLPGDDFPRLKRRVGTAYSIPDELIKADKADKMSQLETDVELHRRIVAAASRLATDKNTNKSVRKKRQKDLQAARLRLNRLEQGLQQMRHSASKPDISSLTSDSSNSWTASNSSGPMLTMAMTKSCPTTPRGSVPDLRNGLDDEKDEFDENVEDRVSRRAPSAISRHSLSQRYSGVSSSSTSSGSDSMGLGLPPRPTSRKSQQQQTTPFDDQLDNPMICEIPPPPSSAAAHPLLVTNLLSRGKTTGCRVLTEYYPVLKRIRTNY”, “not soluble”; for “MPVITILGCRMFEDEIMHLLENDPEIEEVLVVENEDCVGIMKKMAEAGLAYTALSPEKIPEKSSETGKGLTLIVYMLELALHAIPENLKKTVYSKVELMSSCSDGILLFYGLCGNVLGKIEEDFKDLGCQVCILKEENGEIVDDCIGAVLGGRKQYLEVLKSCRGVGTFFLTPMWAVNWREMIRTSGLSQNPDDISMSKFVFDYAGYKRVARLDTGLAYEKDFDACVKEFSTLFEFEVTELEGTLHLIENCYAKTKASVFEACPRSQALEHHHHHH”, “soluble”.
The value for “MITIITQDQLKTSPSVREDGRAFDELRPLKIEAGILERADGSSYLEFGGNKILVAVYGPREAQIRKLQRPDRAVIRCRYNMAPFSVEERKRPGPDRRSVEISKITAEALRPALILEKFPRSVIDVFIEVLEAEGGTRCAGITAASVALADAGIPMRDMVVACAAGKVGDQVVLDLSEEEDKEGQADVPVAILPRTREITLLQSDGNLTPEEFERALDLAVEGCLRIHEVQKEALRKRYGE” was “soluble”.
“MSLNFTLHTLNGIKLWLVLLLLSGAINVCRADSPRQTINFNRGWKYCQGDFDHAARPGFDDSEWEKIGLPHSFSTPYFMSKDFYVGYGWYRKAFPVKKEILGKKSFLEFDGVFQEAEIFVNGHLAGTHKGGYTGFSIDISAYLKEGKNLVAVRVNNCWRPDLAPRAGEHVFSGGIYRNVRLVIKPPTYIDWYGTWITTPDLAENKGKSGSVHIRTDVCNASGKTDTYRLLTTVVDAQGKEVSSVSTSQVLPDNATYTFEQQTKEIQAPQLWHPNHPALYKVISSLYHGQELIDRYETAFGFRWFEWTADRGFFLNGEHLYFKGANVHQDHAGWGDAVTETGMRRDIRLVKEAGFDLIRGSHYPHSPAFSQACDEIGMLFWAENAFWGIGGHKGDGYWNASAYPVNESDRAEFENSVKAQLKELIRIHRNHPSIIVWSMSNEPFFTAPETINPMRKLLEETVKLSKQLDPTRPAAVGGAQRPLGEKRIDKLGDIAGYNGDGSYIPEFQQPGMPTVVSEYGSTTADRPGEYDPGWGDLAKNNAQNGFPWRSGQAIWCAFDHGSIAGSALGKMGIIDYFRIPKRAWYWYRNAYKGITPPEWPQEGTPARISLVADRTDNIKADGTDDVMLSITILDASGKPVSNSPAVKLDILSGPGEFPTGTSILFEKESDIRILDGKAAIEFRSYYAGETVIRATSPGLEPAEVKIRFTGSTPYTEAFKVKERPYTRFETPTKTDNLQTFGPNNPTFCSSSANGHSSAFAADGDESTYWQASENDPERSWTLDTEKGLSIRHIRIAFPDLTPYQYKVEVSMDREHWSLIPDQTNNKQNENIRMIQVVPGIQGRFVRISFTGEKAAITDVQVIGTVIDEGHHHHHH”: the “soluble on expression in E. coli” value is recorded as “soluble”.
For the sequence “MGHHHHHHSHMHGECVKEEKDFLKKEIVDDTKVKEEPPINHPVGCKRKLAMSRCETCGTEEAKYRCPRCMRYSCSLPCVKKHKAELTCNGVRDKTAYISIQQFTEMNLLSDYRFLEDVARTADHISRDAFLKRPISNKYMYFMKNRARRQGINLKLLPNGFTKRKENSTFFDKKKQQFCWHVKLQFPQSQAEYIEKRVPDDKTINEILKPYIDPEKSDPVIRQRLKAYIRSQTGVQILMKIEYMQQNLVRYYELDPYKSLLDNLRNKVIIEYPTLHVVLKGSNNDMKVLHQVKSESTKNVGNEN”, the “soluble on expression in E. coli” value is listed as “not soluble”.
In the case of “MTLYVNLAELLGSRIENGFYRPGDRLPSVRALSVEHGVSLSTVQQAYRVLEDSGLAAPKPKSGYFVSVSRHAPALPAVGRPAQRPVDISQWDQVLDLIRVAPREAVTQLGRGMPDVTSPTLKPLMRALGQLSRHQDMPGLYYDNIYGVLRLREQVARLMLDSGCNLTANDVIITNGCHEALSASVRAICSPGDIVAVDSPSFFGAMQTLKGVGMKALEIPTDPLTGISLEALELALEQWPIKVIQLTPNCNNPLGYVMPEARKRALLTLAQRFDVAIIEDDVYGDLAYNYPRPRTIKSFDEDGRVLLCSSFSKTLAPGLRIGWVAPGRYLERVLHMKYIGTGSTAPQPQLAIADFLEGGHYEPHVRRMRTQYQRSRDQMIDWVMRYFPEGTRASRPQGSFMLWVELAEDFDTLRLNRALLDKGVQIAVGSIFSASGKYRNCMRLNYAAKSSREIESAVRIVGETIAQLIAQSD”, the “soluble on expression in E. coli” value was “not soluble”.
For “MDGDIIDQYRFPSPHPGIDVFFVTYMSQGLKVKGFLAAPKRKGVYDGFLYLRGGIKNVGQVRVPRLVQFASQGFVVFAPLYRGNGGGEGNEDFAGDDRYDALAGFHLLRRHPLVHPGRVHMFGFSRGGAMALHAAVMAEGVCSVAVWGGVADLELTYWERPDLRRMMKRVIGGTPNKCPERYRHRTPLYHLERLKAPVLIIHGGRDENVSIEHAWRLERRLKQLGKPVTAWYFPEFTHYFPPQANRETVQRLTEWMKQQPTM”, the “soluble on expression in E. coli” value is given as “not soluble”.
The value for “MSLAAFQIANKTVGKDAPVFIIAEAGINHDGKLDQAFALIDAAAEAGADAVKFQMFQADRMYQKDPGLYKTAAGKDVSIFSLVQSMEMPAEWILPLLDYCREKQVIFLSTVCDEGSADLLQSTSPSAFKIASYEINHLPLLKYVARLNRPMIFSTAGAEISDVHEAWRTIRAEGNNQIAIMHCVAKYPAPPEYSNLSVIPMLAAAFPEAVIGFSDHSEHPTEAPCAAVRLGAKLIEKHFTIDKNLPGADHSFALNPDELKEMVDGIRKTEAELKQGITKPVSEKLLGSSYKTTTAIEGEIRNFAYRGIFTTAPIQKGEAFSEDNIAVLRPGQKPQGLHPRFFELLTSGVRAVRDIPADTGIVWDDILLKDSPFHEEGGSHHHHHH” was “soluble”.
